Patent US8486893B2, “Treatment of conditions involving demyelination” (Biogen Idec MA Inc., priority 2004, dated 2013)

Tests used:
[1] = test system: co-cultures of dorsal root ganglion (DRG) neurons and oligodendrocytes; assay: In vitro myelination in co-cultures of DRG neurons and oligodendrocytes; format: cell-based, rat
Description: The role of Sp35 in myelination was examined in vitro by treating co-cultures of dorsal root ganglion (DRG) neurons and oligodendrocytes with Sp35-Fc and testing for myelination by immunohistochemistry and electron microscopy. For these studies, it was necessary to first generate primary cultures of DRG neurons and of oligodendrocytes.
Female Long Evans rat E14-E17 embryonic dorsal root ganglia were cultured as described by Plant et al., J. Neurosci. 22:6083-91 (2002). Dissected DRGs were plated on poly-L-lysine-coated cover slips (100 μg/ml) for 2 weeks in the presence of fluorodeoxyuridine for days 2-6 and days 8-11 in NLA medium containing 1× B27, 100 ng/ml NGF (Invitrogen).
A2B5^+ oligodendrocytes were prepared as described in Example 1, and were harvested by trypsinization.
For coculture studies, A2B5^+ oligodendrocytes were added to DRG neuron drop cultures in the presence or absence of 10 μg/ml Sp35-Fc. The culture medium (Neurobasal medium supplemented with B27 and 100 ng/ml NGF) was changed, and fresh Sp35-Fc was added to the cells every 3 d. To identify changes in myelination, 2-week-old cultures were stained by immunohistochemical staining (“IHC”) for neurofilaments with anti-βIII-tubulin antibody to identify axons, or anti-MBP antibody to identify oligodendrocytes., and 4-week-old cultures were subjected to SDS-PAGE followed by western blot analyses to quantify the MBP. In selected examples, cells were fixed for electron microscopy studies by adding 2.5% gluteraldehyde directly onto the cover slips. Myelinated axons in the 2-week-old cultures were quantified by counting the number of myelinated internode bundles that were derived from single MBP^+ oligodendrocytes. Samples were analyzed in duplicate. Error bars denote individual determinations. P values in all studies were determined using a one-way analysis of variance.
Several peptides containing portions of the Ig domain of Sp35 were examined in vitro, by treating co-cultures of dorsal root ganglion (DRG) neurons and oligodendrocytes with Sp35 Ig peptides and testing for myelination as described in Example 5.
For co-culture studies, A2B5^+ oligodendrocytes were added to DRG neuron drop cultures in the presence or absence of 10 μg/ml Sp35-Ig-Fc (Sp35 amino acids 417-493 fused to Fc). The culture medium (Neurobasal medium supplemented with B27 and 100 ng/ml NGF) was changed, and fresh Sp35-Ig-Fc was added to the cells every 3 d. To identify changes in myelination, 2-week-old cultures were stained by immunohistochemical staining (“IHC”) for neurofilaments with anti-βIII-tubulin antibody to identify axons, or anti-MBP antibody to identify oligodendrocytes and 4-week-old cultures were subjected to SDS-PAGE followed by western blot analyses to quantify the MBP.
We performed experiments to address the relative contributions to the myelination process of Sp35 in DRG neurons as compared to oligodendrocytes. We infected DRG neurons, oligodendrocytes and co-cultures (prepared as described in Example 5) with the FL-Sp35 and DN-Sp35 lentiviral vectors described in Example 1 and performed immunohistochemical straining for myelinated MBP cells after two weeks. A 2-fold increase in MBP levels in co-cultures where both cells express DN-Sp35 and a 2-fold decrease in MBP levels in co-cultures where both cells express FL-Sp35 was observed (FIG. 10G).

[2] = test system: Caspase-3; assay: Caspase-3 activation in differentiated PC12 cells after NGF withdrawal (Caspase 3/7 Glo); format: cell-based
Description: PC12 cells (Neuroscreen) were differentiated in RPMI-1640 medium supplemented with 5% fetal bovine serum, 10% horse serum, 2 mM glutamine, 100 U/ml penicillin and […] streptomycin containing 200 ng/ml NGF for 7 days. For experiments, the culture media was replaced with NGF-free culture media containing Sp35-Fc, human IgG as a negative control (0.1-10 μM), or zVAD as a positive control (0.1 μM). 18 hours after NGF withdrawal, activated Caspase-3 was quantified using the Caspase 3/7 Glo kit (Promega) according to the manufacturer's instructions. 42 hours after NGF withdrawal, apoptotic cell death was quantified using a cell death detection ELISA kit (Roche) according to the manufacturer's instructions.

B1: Sp35-Fc: extra-cellular portion of human Sp35 (residues 1-532) fused to the hinge and Fc region of human IgG1 (protein)
chain: TGCPPRCECSAQDRAVLCHRKRFVAVPEGIPTETRLLDLGKNRIKTLNQDEFASFPHLEELELNENIVSAVEPGAFNNLFNLRTLGLRSNRLKLIPLGVFTGLSNLTKLDISENKIVILLDYMFQDLYNLKSLEVGDNDLVYISHRAFSGLNSLEQLTLEKCNLTSIPTEALSHLHGLIVLRLRHLNINAIRDYSFKRLYRLKVLEISHWPYLDTMTPNCLYGLNLTSLSITHCNLTAVPYLAVRHLVYLRFLNLSYNPISTIEGSMLHELLRLQEIQLVGGQLAVVEPYAFRGLNYLRVLNVSGNQLTTLEESVFHSVGNLETLILDSNPLACDCRLLWVFRRRWRLNFNRQQPTCATPEFVQGKEFKDFPDVLLPNYFTCRRARIRDRKAQQVFVDEGHTVQFVCRADGDPPPAILWLSPRKHLVSAKSNGRLTVFPDGTLEVRYAQVQDNGTYLCIAANAGGNDSMPAHLHVRSYSPDWPHQPNKTFAFISNQPGE
modifications: left off: a dimerising Fc or GST
notes: extra-cellular portion of human Sp35 (residues 1-532) fused to the hinge and Fc region of human IgG1
expression of MBP by western blot ([1]; 4-week-old treated cocultures, 10 μg/ml for Fc fusions): increased | confocal microscopy of myelination ([1]; Sp35-Fc treated cocultures): MBP had encapsulated the axons | electron microscopy of myelination ([1]; cocultures treated 4 weeks, FIG. 10C): Multiple wellformed internodes | effect on myelination when both cell types overexpress DN-Sp35 ([1]; exogenously added): slight effects | effect on myelination when either cell type overexpresses DN-Sp35 alone ([1]; exogenously added): further enhanced myelination | effect on myelination in cocultures overexpressing FL-Sp35 ([1]; exogenously added, FL-Sp35 in either or both cell types): reversed the inhibition of myelination | axonal myelination (MBP+ myelinated axons) ([1]; treatment for 2 weeks, IHC, FIG. 10A): robust axonal myelination | Caspase-3 activation ([2]; 0.1 μM, 18 hours after removal of NGF): reduced Caspase-3 activation | dose dependence of effect on Caspase-3 activation ([2]; 0.1-10 μM, 18 hours after NGF withdrawal): dose-dependent | effect on Caspase-3 activation compared with zVAD (0.1 μM) ([2]; 1 or 10 μM, FIG. 14): as effective as a neuroprotective dose of the caspase inhibitor zVAD
